B1: M110-C12 (antibody, V domains shown)
VH: EVQLLESGGGLVQPGGSLRLSCAASGFTFSYYEMDWVRQAPGKGLEWVSGISSSGGHTAYADSVKGRFTISRDNSKNTLYLQMNSLRAEDTATYYCARERRSSSRARYYYGMDVWGQGTTVTVSS
VL: DIQMTQSPLSLSVTPGEPASISCRSSLSLLHSNGYNYLDWYVQRPGQSPQLLMYLSSTRASGVPDRFSGSGSGTDFTLEISRVEAEDVGVYYCMQPLETPPTFGGGTKVEIK
B2: M142-H08 (antibody, V domains shown)
VH: EVQLLESGGGLVQPGGSLRLSCAASGFTFSAYSMIWVRQAPGKGLEWVSYIRPSGGRTTYADSVKGRFTISRDNSKNTLYLQMNSLRAEDTAVYYCARGGLLLWFRELKSNYFDYWGQGTLVTVSS
VL: DIQMTQSPSSLSAFVGDRVTITCRASQPIDNYLNWYHQKPGKAPKLLIYAASRLQSGVPSRLSGSGFGTDFTLTISSLQPEDFGNYYCQQSYTVPYTFGGGTKVEIR
B3: M73-D06 (antibody, V domains shown)
VH: EVQLLESGGGLVQPGGSLRLSCAASGFTFSRYEMYWVRQAPGKGLEWVSSISSSGGPTAYADSVKGRFTISRDNSKNTLYLQMNSLRAEDTAMYYCAKGTPKWELLLRSIYIENAFDIWSQGTMVTVSS
VL: QSELTQPPSASETPSQRVTISCSGSSSNIGSNTVSWFQQLPGSAPRLLIYNDHRRPSGVPDRFSGSKSGTSASLVISGLQSQDEADYYCSAWDDSLNGVVFGGGTKLTVL
B4: M7-E07 (antibody, V domains shown)
VH: EVQLLESGGGLVQPGGSLRLSCAASGFTFSWYLMIWVRQAPGKGLEWVSYIYPSGGFTYYADSVKGRFTISRDNSKNTLYLQMNSLRAEDMAVYYCARTEGPLSWGYGMDVWGQGTTVTVSS
VL: not shown
B5: M27-E05 (antibody, V domains shown)
VH: EVQLLESGGGLVQPGGSLRLSCAASGFTFSWYLMIWVRQAPGKGLEWVSYIYPSGGFTYYADSVKGRFTISRDNSKNTLYLQMNSLRAEDMAVYYCARTEGPLSWGYGMDVWGQGTTVTVSS
VL: not shown
B6: M35-G04 (antibody, V domains shown)
VH: EVQLLESGGGLVQPGGSLRLSCAASGFTFSYYHMSWVRQAPGKGLEWVSVISPSGGSTKYADSVKGRFTISRDNSKNTLYLQMNSLRAEDTAVYYCARGGSSDYAWGSYRRPYYFDYWGQGTLVTVSS
VL: DIQMTQSPATLSLSPGERATLSCRASQSVSSYLAWYQQKPGQAPRLLIYDASNRATGIPARFSGSGSGTDFTLTISSLEPEDFAVYYCQQRSNWPRGFTFGPGTKVDIK
B7: M41-A11 (antibody, V domains shown)
VH: EVQLLESGGGLVQPGGSLRLSCAASGFTFSHYRMSWVRQAPGKGLEWVSSIYPSGGRTVYADSVKGRFTISRDNSKNTLYLQMNSLRAEDTAVYYCAKDKFEWRLLFRGIGNDAFDIWGQGTMVTVSS
VL: QSVLTQPPSVSVSPGQTASITCSGDKLGDKYTSWYQQRPGQSPVLVIYQDIKRPSGIPERFSGSNSGNTATLTISGTQAMDEADYYCQAWDSPNARVFGSGTKVTVL
B8: M38-F02 (antibody, V domains shown)
VH: EVQLLESGGGLVQPGGSLRLSCAASGFTFSYYMMVWVRQAPGKGLEWVSYIYSSGGHTVYADSVKGRFTISRDNSKNTLYLQMNSLRAEDTAVYYCARDLFLYDFWSKGAFDIWGQGTMVTVSS
VL: QSVLTQPPSVSVSPSQTASITCSGEKLGDKYVSWYQQKPGQSPSLVICEDSRRPSGIPERFSGSNSGNTATLTISGAQPMDEADYYCQAWDSSTAIFGPGTKVTVL
B9: M8-A09 (antibody, V domains shown)
VH: EVQLLESGGGLVQPGGSLRLSCAASGFTFSTYFMLWVRQAPGKGLEWVSSIYPSGGNTVYADSVKGRFTISRDNSKNTLYLQMNSLRAEDTAVYYCARAASPVRNYYYYGMDVWGQGTTVTVSS
VL: QCELTQPPSESVSPGQTANITCSGDKLGNKYAYWYQQKPGQSPVLVIYQDNNRPSGIPERFSGSNSGNTATLTISGTQAIDEANYYCQAWDSRTVVFGGGTKLTVL

What follows are binders tested against T1, human plasma kallikrein (human, UniProt P03952 20-390; P03952 391-638) (assay: ELISA; signal on biotinylated plasma kallikrein divided by signal on streptavidin background).
T1 construct: also called pKal; human pKal
From the text: Abbreviations used: “T/B” is the ELISA signal obtained using of the “target” (biotinylated plasma kallikrein) divided by the ELISA signal of the “background” (streptavidin); both of which were coated on microtiter plates. “nd” is not determined. The symbol “q” refers to the amber suppressible stop codon (TAG), which is translated as glutamine (Q) in strains of E. coli such as the TG1 cells that were used to express the Fab fragments.

T1 sequence (P03952 20-390, chain 1 of 2): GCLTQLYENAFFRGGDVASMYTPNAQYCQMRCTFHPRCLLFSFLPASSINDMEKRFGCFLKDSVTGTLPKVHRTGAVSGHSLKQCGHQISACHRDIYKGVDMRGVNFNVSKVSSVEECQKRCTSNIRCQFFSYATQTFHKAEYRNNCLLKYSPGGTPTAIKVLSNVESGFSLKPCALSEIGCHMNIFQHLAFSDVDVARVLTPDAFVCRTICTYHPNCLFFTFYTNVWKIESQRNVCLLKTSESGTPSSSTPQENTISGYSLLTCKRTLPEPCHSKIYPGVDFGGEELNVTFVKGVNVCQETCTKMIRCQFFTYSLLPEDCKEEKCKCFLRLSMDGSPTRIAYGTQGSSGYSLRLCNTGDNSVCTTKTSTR
T1 sequence (P03952 391-638, chain 2 of 2): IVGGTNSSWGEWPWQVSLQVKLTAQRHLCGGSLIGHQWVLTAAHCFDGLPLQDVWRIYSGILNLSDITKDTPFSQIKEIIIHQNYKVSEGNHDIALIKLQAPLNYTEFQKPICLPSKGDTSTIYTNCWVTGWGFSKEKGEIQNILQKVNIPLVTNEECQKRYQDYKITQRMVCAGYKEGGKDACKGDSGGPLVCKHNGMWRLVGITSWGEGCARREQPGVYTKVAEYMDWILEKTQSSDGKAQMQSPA

Going from B1 to B2, the “ELISA (T/B)” value rises from 2.4 T/B ratio to 29.9 T/B ratio.

Compared with B3, B4 is higher in “ELISA (T/B)” value: 4 T/B ratio for the first, 45.7 T/B ratio for the second.

Compared with B5, B6 is lower in “ELISA (T/B)” value: 41.3 T/B ratio for the first, 11.1 T/B ratio for the second.

First: B7
Second: B8
The “ELISA (T/B)” value of the first is lower: 28 T/B ratio for the first, 33.5 T/B ratio for the second.

With B9 the “ELISA (T/B)” value was 5.4 T/B ratio.

— patent US20100183625A1 (published 2010)
